Source: US20220002732A1, “INHIBIN AS TARGETABLE REGULATORS OF ANGIOGENESIS” (UNIVERSITY OF SOUTH CAROLINA, priority 2016, published 2022)

Assays:
[1] = tested on: TGF-β receptor serine threonine kinases (ALK1-7); assay: Panel of small molecule ALK inhibitors: inhibin-induced signaling and angiogenesis; assay type: cell-based; conditions: preliminary screen of ALK inhibitors
Description: The inhibin-α activation of the SMAD1/5 pathway was also examined to determine which receptor type is required. TGF-β receptor serine threonine kinases (ALK1-7) are used by other TGF-β ligands. Testing was done to determine which Type I receptor is utilized by inhibin by using a panel of small molecule inhibitors as a preliminary screen for different ALKs. […] Similarly, three type II receptors are expressed in cells: TBRII, ACTRII and BMPRII.

HMvEC-1 cells = assay: Three-dimensional capillary sprouting and tube formation (number of meshes); assay type: cell-based, human
Experimental: FIG. 25 illustrates three-dimensional capillary sprouting and tube formation of HMvEC-1 cells in the presence of conditioned media (CM) from shControl SKOV3 cancer cells or CM from shINHA SKOV3 cancer cells (top), in the presence of CM from shControl SKOV3 cells in the presence of 10 μg/ml IgG or anti-inhibin-α (middle), and in the presence of CM from shControl treated with (+) or without (−) 300 pM recombinant Inhibin A alone and anti-inhibin-α antibody (10 μg/ml) (bottom). The bar graphs represent the average number of meshes quantified and represent duplicate trials. […] (Bar graphs show mean±SEM, ***P<0.001 and **P<0.01 (n=3), Student's t-test. Scale Bar=500 μm.)
Other TGF-β members have been reported to have effects on angiogenesis. FIG. 26 illustrates side-by-side comparison of angiogenesis results for HMvEC-1 cells treated as indicated with other TGF-β members (activin A, BMP9, TGFβ1) either alone or in the presence of inhibin-α. The robust effect of inhibin on angiogenesis can be seen. The bar graph represents quantitation of number of meshes.
FIG. 27 illustrates the capillary sprouting and tube formation of multiple endothelial cell types (HUVEC, HMvEC, MEEC) upon treatment with 300 pM inhibin-α for 16 hours and the broad effect of inhibin on angiogenesis in different cell types. The graphs represent the number of meshes, branches, and nodes quantified. (Bar graphs show mean±SEM, ***P<0.001 and **P<0.01 (n=3), Student's t-test. Scale Bar=500 μm.)
FIG. 32 illustrates three-dimensional capillary sprouting and tube formation of HMvEC-1 cells in the presence or absence of recombinant inhibin-α (300 pM) either untreated or pretreated with 100 μg/ml TRC105 for 30 minutes prior to inhibin-α treatment (left, scale bar=500 μm). Average number meshes/field was quantified 16 h after treatment and presented in the bar graph (middle). Minimum of 3 fields were counted and data represent duplicate trials. Western blotting for SMAD1/5 phosphorylation is shown (right) in response to 20 pM inhibin-α for up to 60 minutes.
FIG. 34 illustrates capillary sprouting and tube formation (left) in HMvEC-1 cells in response to inhibin-α in the absence and presence of 5 μM of TRC105 added 30 minutes prior to treatment with inhibin-α. The bar graph on the right represents the number of meshes quantified.

SMAD1/5 = assay: Western blot and staining for SMAD1/5 activation in endothelial cells (HMvEC-1, MEEC); assay type: cell-based, human, mouse
Experimental: (§1) Mouse Embryonic Endothelial Cells (MEEC) and Human Microvascular Endothelial Cells (HMvEC-1) were examined to determine the effect of inhibin-α on SMAD1/5 activation and on MAPK pathway activation, and specifically, on ERK1/2 activation. GAPDH or B-actin was used as control. Cells were incubated with 20 pM inhibin-α and examined over a time course of 60 minutes and also examined following 30-minute incubation over a dose course from 0 to 100 pM inhibin-α. Western blot results are shown of the HMvEC-1 (FIG. 17) and MEEC (FIG. 18). FIG. 19 presents the Western blot time course results following incubation of MEEC with inhibin-α for ERK1/2 activation. FIG. 20 presents image results from staining (Psmad1/5, DAP, and merged images) for HMvEC-1 cells (left) and MEEC cells (right) following incubation in inhibin-α or untreated (UT).
To determine if inhibin secreted by ovarian cancer cells activates the SMAD1/5 pathway in endothelial cells, conditioned media were obtained from stable cell lines that were generated from SKOV3 cells and OVCA420 cells with short hairpin RNA either as a control (with no effective sequence) (shControl), or directed at inhibin-α (shINHA), or stable unmodified SKOV3 cells. HMvEC-1 cells were then incubated in one of the conditioned media, as schematically illustrated in FIG. 22.

ERK1/2 = assay: Western blot for MAPK pathway ERK1/2 activation in endothelial cells (MEEC); assay type: cell-based, mouse; conditions: time course
Experimental: as §1

SMAD2/3 = assay: Western blot for SMAD2/3 activation in endothelial cells (HMvEC-1, MEEC); assay type: cell-based, human, mouse

NC(=O)c1ccc(-c2nc(-c3ccc4c(c3)OCO4)c(-c3ccccn3)[nH]2)cc1 [SB431542]
suppression of inhibin-induced signaling and angiogenesis [1]: not ALK3/6 or ALK5/4/7 (SB431542), suppressed

B1: recombinant Inhibin: recombinant Inhibin A, αβA heterodimer, used at 300 pM (protein, UniProt P05111 233-366; P08476 311-426, looked up)
Inhibin alpha chain: STPLMSWPWSPSALRLLQRPPEEPAAHANCHRVALNISFQELGWERWIVYPPSFIFHYCHGGCGLHIPPNLSLPVPGAPPTPAQPYSLLPGAQPCCAALPGTMRPLHVRTTSDGGYSFKYETVPNLLTQHCACI
Inhibin beta A chain: GLECDGKVNICCKKQFFVSFKDIGWNDWIIAPSGYHANYCEGECPSHIAGTSGSSLSFHSTVINHYRMRGHSPFANLKSCCVPTKLRPMSMLYYDDGQNIIKKDIQNMIVEECGCS
endothelial cell angiogenesis induced by tumor cell-produced inhibin (number of meshes) (HMvEC-1 cells; HMvEC-1, CM from shControl SKOV3, antibody 10 μg/ml, recombinant Inhibin A 300 pM): can be recapitulated

B2: inhibin-α: α-subunit of inhibin, critical for the functionality of dimeric inhibin (both A and B) (protein, UniProt P05111 233-366, looked up)
Inhibin alpha chain: STPLMSWPWSPSALRLLQRPPEEPAAHANCHRVALNISFQELGWERWIVYPPSFIFHYCHGGCGLHIPPNLSLPVPGAPPTPAQPYSLLPGAQPCCAALPGTMRPLHVRTTSDGGYSFKYETVPNLLTQHCACI
SMAD1/5 pathway activation by cancer cell conditioned media (SMAD1/5; HMvEC-1 cells in conditioned media of shControl or shINHA SKOV3/OVCA420 cells): activates the SMAD1/5 pathway in endothelial cells in a paracrine manner | SMAD1/5 activation (SMAD1/5; endothelial cells, 20 pM over 60 minutes, 0 to 100 pM for 30 minutes): robust activator | ERK1/2 activation (ERK1/2): robust activator | SMAD2/3 activation (SMAD2/3): not equally an activator | angiogenesis (number of meshes), side-by-side with other TGF-β members (HMvEC-1 cells; HMvEC-1, compared with activin A, BMP9, TGFβ1): robust effect | capillary sprouting and tube formation in multiple endothelial cell types (HMvEC-1 cells; HUVEC, HMvEC, MEEC, 300 pM, 16 hours): broad effect

B3: TRCN105: humanized antibody to endoglin in clinical trials (antibody, chains of the INN, looked up, V domains shown)
VH: EVKLEESGGGLVQPGGSMKLSCAASGFTFSDAWMDWVRQSPEKGLEWVAEIRSKASNHATYYAESVKGRFTISRDDSKSSVYLQMNSLRAEDTGIYYCTRWRRFFDSWGQGTTLTVSS
VL: QIVLSQSPAILSASPGEKVTMTCRASSSVSYMHWYQQKPGSSPKPWIYATSNLASGVPVRFSGSGSGTSYSLTISRVEAEDAATYYCQQWSSNPLTFGAGTKLELK
inhibin-α-induced angiogenesis on loss or block of endoglin or ALK1 (HMvEC-1 cells; endothelial cells with or without recombinant inhibin-α): inhibin does not induce angiogenesis
